We go through five substances from paper PMC4838890, “Dynamic and flexible H3K9me3 bridging via HP1β dimerization establishes a plastic state of condensed chromatin” (Nature Communications, 2016).

One test addresses HP1β (Homo sapiens) (UniProt P83916). The settings on record: cited from earlier work.
Test [1] deals with H3K9me3 oligonucleosomes (12-mer oligonucleosomal arrays) (Xenopus laevis). Nature of the test: co-sedimentation; chromatin coprecipitation with oligonucleosomes reconstituted to different saturation (0.8:1.0, 1.0:1.0, 1.0:1.2 octamers to positioning sequences); saturating protein concentrations; Coomassie bands quantified in relation to input.
For test [2], the target named is H3K9me3 mononucleosome (Xenopus laevis). Nature of the test: SPR; biotinylated ligands on streptavidin (SA) chips, hHP1β proteins injected; 298 K; 10 mM triethanolamine pH 7.5, 150 mM NaCl, 0.1 mM EDTA, 1 mM DTT, 0.005% Tween-20; steady-state analysis; apparent. A general note: Surface plasmon resonance follows binding to a sensor surface in real time, without labels.

Test [3] addresses H3KC9me3 mononucleosome (Xenopus laevis). Nature of the test: ITC; 1.8 mM hHP1β injected into 60 μM H3 peptides, nucleosomes or oligonucleosomal arrays; 25°C; 10 mM triethanolamine pH 7.5, 150 mM NaCl, 0.1 mM EDTA; apparent; one set of identical sites. Background: ITC needs no label: the signal is the heat of the interaction.
Test [4] concerns the target H3KC9me3 oligonucleosomes (12-mer oligonucleosomal arrays) (Xenopus laevis). The test is described as above.
Test [5] deals with free H3K9me3 tail peptide. The test is described as above.
Test [6] addresses H3KC9me3 mononucleosome (Xenopus laevis). Nature of the test: ITC; 1.8 mM hHP1β injected into 60 μM H3 peptides, nucleosomes or oligonucleosomal arrays; 25°C; 10 mM triethanolamine pH 7.5, 20 mM NaCl, 0.1 mM EDTA; apparent; one set of identical sites.
Test [7] has as its target free H3K9me3 tail peptide. The test is described as above.
The target in test [8] is H3K9me3 oligonucleosomes (12-mer oligonucleosomal arrays) (Xenopus laevis).
The target of test [9] is H3KC9me3 tail peptide. Nature of the test: ITC; 1.8 mM hHP1β injected into 60 μM H3 peptides, nucleosomes or oligonucleosomal arrays; 25°C; 10 mM triethanolamine pH 7.5, 150 mM NaCl, 0.1 mM EDTA; apparent; one set of identical sites.
Test [10] deals with H3KC9me3 tail peptide. Nature of the test: ITC; 1.8 mM hHP1β injected into 60 μM H3 peptides, nucleosomes or oligonucleosomal arrays; 25°C; 10 mM triethanolamine pH 7.5, 20 mM NaCl, 0.1 mM EDTA; apparent; one set of identical sites.

human HP1β wild type (hHP1β WT), sequence (P83916 whole entry): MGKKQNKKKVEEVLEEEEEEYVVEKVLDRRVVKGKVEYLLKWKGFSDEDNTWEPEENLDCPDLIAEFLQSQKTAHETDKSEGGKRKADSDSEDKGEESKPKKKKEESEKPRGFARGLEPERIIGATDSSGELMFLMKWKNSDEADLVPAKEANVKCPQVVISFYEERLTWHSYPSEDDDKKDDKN
Swi6, sequence (P40381 whole entry): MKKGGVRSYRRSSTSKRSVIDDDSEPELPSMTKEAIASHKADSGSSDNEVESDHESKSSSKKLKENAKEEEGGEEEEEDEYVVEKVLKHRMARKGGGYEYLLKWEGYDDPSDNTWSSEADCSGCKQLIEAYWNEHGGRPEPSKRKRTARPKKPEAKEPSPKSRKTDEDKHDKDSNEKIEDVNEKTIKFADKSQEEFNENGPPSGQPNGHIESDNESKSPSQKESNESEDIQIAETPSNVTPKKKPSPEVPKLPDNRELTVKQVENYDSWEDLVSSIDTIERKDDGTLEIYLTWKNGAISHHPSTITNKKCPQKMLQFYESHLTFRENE
HP1β, sequence (P83916 whole entry): as the sequence (P83916 whole entry) above

Take HP1β (from UniProt P83916): the Kd in the test with HP1β (Homo sapiens) was below 0.001 µM.

In [1], “Swi6 (from UniProt P40381 1-328) (natural protein)” registered a stoichiometry N (molecules per nucleosome) of 4.

Usually stoichiometry N stands for a count of units in the complex or per binding partner. On to “hHP1β I161A (from UniProt P83916 1-185) (natural protein)”, for which the Kd in test [2] turned out to be 5.2 µM; in [3], 58 µM; in test [4] it was 132 µM; in test [5], 3.4 µM; in test [6], 223 µM; in [7], 1.1 µM. The stoichiometry N stood at 1.2 in test [3]; 1.1 in [4]; 0.9 in test [5]; 1.1 in test [6]; 1 in [7].

Regarding “hHP1β chromo domain (CD) (domain or fragment)”, the stoichiometry N in [5] amounted to 1.1.

For “human HP1β wild type (hHP1β WT) (from UniProt P83916 1-185) (natural protein)”, the half-maximal effect in the chromatin precipitation (sedimentation) assay, 150 mM NaCl, 4°C in [8] came out at 0.4 µM. The half-maximal effect on the hydrodynamic radius of oligonucleosomes by FCS, 150 mM NaCl, 23°C in test [8] stood at 3.5 µM. Also, the Kd in test [2] is 1 µM; with H3KC9me3 tail peptide [9], 21 µM; in [3] it was 22 µM; in [4], 11 µM; with H3KC9me3 tail peptide [10], 11 µM; in [6], 59 µM. Besides, the Kd in test [7] amounted to 1.4 µM. Besides, in [1], the stoichiometry N (molecules per nucleosome) came out at 2. In addition, the stoichiometry N with H3KC9me3 tail peptide [9] is 1; in test [3], 1.4; in [4] it was 1.9; in [5], 1; with H3KC9me3 tail peptide [10], 1; in test [6] it was 2.1. Further, the stoichiometry N in test [7] is 0.9.
